Data as given in patent US20130039933.

B1: NEK2 (protein)
chain: MPSRAEDYEVLYTIGTGSYGRCQKIRRKSDGKILVWKELDYGSMTEAEKQMLVSEVNLLRELKHPNIVRYYDRIIDRTNTTLYIVMEYCEGGDLASVITKGTKERQYLDEEFVLRVMTQLTLALKECHRRSDGGHTVLHRDLKPANVFLDGKQNVKLGDFGLARILNHDTSFAKTFVGTPYYMSPEQMNRMSYNEKSDIWSLGCLLYELCALMPPFTAFSQKELAGKIREGKFRRIPYRYSDELNEIITRMLNLKDYHRPSVEEILENPLIADLVADEQRRNLERRGRQLGEPEKSQDSSPVLSELKLKEIQLQERERALKAREERLEQKEQELCVRERLAEDKLARAENLLKNYSLLKERKFLSLASNPELLNLPSSVIKKKVHFSGESKENIMRSENSESQLTSKSKCKDLKKRLHAAQLRAQALSDIEKNYQLKSRQILGMR
B2: NEK9 (protein)
chain: MSVLGEYERHCDSINSDFGSESGGCGDSSPGPSASQGPRAGGGAAEQEELHYIPIRVLGRGAFGEATLYRRTEDDSLVVWKEVDLTRLSEKERRDALNEIVILALLQHDNIIAYYNHFMDNTTLLIELEYCNGGNLYDKILRQKDKLFEEEMVVWYLFQIVSAVSCIHKAGILHRDIKTLNIFLTKANLIKLGDYGLAKKLNSEYSMAETLVGTPYYMSPELCQGVKYNFKSDIWAVGCVIFELLTLKRTFDATNPLNLCVKIVQGIRAMEVDSSQYSLELIQMVHSCLDQDPEQRPTADELLDRPLLRKRRREMEEKVTLLNAPTKRPRSSTVTEAPIAVVTSRTSEVYVWGGGKSTPQKLDVIKSGCSARQVCAGNTHFAVVTVEKELYTWVNMQGGTKLHGQLGHGDKASYRQPKHVEKLQGKAIRQVSCGDDFTVCVTDEGQLYAFGSDYYGCMGVDKVAGPEVLEPMQLNFFLSNPVEQVSCGDNHVVVLTRNKEVYSWGCGEYGRLGLDSEEDYYTPQKVDVPKALIIVAVQCGCDGTFLLTQSGKVLACGLNEFNKLGLNQCMSGIINHEAYHEVPYTTSFTLAKQLSFYKIRTIAPGKTHTAAIDERGRLLTFGCNKCGQLGVGNYKKRLGINLLGGPLGGKQVIRVSCGDEFTIAATDDNHIFAWGNGGNGRLAMTPTERPHGSDICTSWPRPIFGSLHHVPDLSCRGWHTILIVEKVLNSKTIRSNSSGLSIGTVFQSSSPGGGGGGGGGEEEDSQQESETPDPSGGFRGTMEADRGMEGLISPTEAMGNSNGASSSCPGWLRKELENAEFIPMPDSPSPLSAAFSESEKDTLPYEELQGLKVASEAPLEHKPQVEASSPRLNPAVTCAGKGTPLTPPACACSSLQVEVERLQGLVLKCLAEQQKLQQENLQIFTQLQKLNKKLEGGQQVGMHSKGTQTAKEEMEMDPKPDLDSDSWCLLGTDSCRPSL
B3: IRAK4 (protein)
chain: MNKPITPSTYVRCLNVGLIRKLSDFIDPQEGWKKLAVAIKKPSGDDRYNQFHIRRFEALLQTGKSPTSELLFDWGTTNCTVGDLVDLLIQNEFFAPASLLLPDAVPKTANTLPSKEAITVQQKQMPFCDKDRTLMTPVQNLEQSYMPPDSSSPENKSLEVSDTRFHSFSFYELKNVTNNFDERPISVGGNKMGEGGFGVVYKGYVNNTTVAVKKLAAMVDITTEELKQQFDQEIKVMAKCQHENLVELLGFSSDGDDLCLVYVYMPNGSLLDRLSCLDGTPPLSWHMRCKIAQGAANGINFLHENHHIHRDIKSANILLDEAFTAKISDFGLARASEKFAQTVMTSRIVGTTAYMAPEALRGEITPKSDIYSFGVVLLEIITGLPAVDEHREPQLLLDIKEEIEDEEKTIEDYIDKKMNDADSTSVEAMYSVASQCLHEKKNKRPDIKKVQQLLQEMTAS
B4: IKKα (protein)
chain: MERPPGLRPGAGGPWEMRERLGTGGFGNVCLYQHRELDLKIAIKSCRLELSTKNRERWCHEIQIMKKLNHANVVKACDVPEELNILIHDVPLLAMEYCSGGDLRKLLNKPENCCGLKESQILSLLSDIGSGIRYLHENKIIHRDLKPENIVLQDVGGKIIHKIIDLGYAKDVDQGSLCTSFVGTLQYLAPELFENKPYTATVDYWSFGTMVFECIAGYRPFLHHLQPFTWHEKIKKKDPKCIFACEEMSGEVRFSSHLPQPNSLCSLVVEPMENWLQLMLNWDPQQRGGPVDLTLKQPRCFVLMDHILNLKIVHILNMTSAKIISFLLPPDESLHSLQSRIERETGINTGSQELLSETGISLDPRKPASQCVLDGVRGCDSYMVYLFDKSKTVYEGPFASRSLSDCVNYIVQDSKIQLPIIQLRKVWAEAVHYVSGLKEDYSRLFQGQRAAMLSLLRYNANLTKMKNTLISASQQLKAKLEFFHKSIQLDLERYSEQMTYGISSEKMLKAWKEMEEKAIHYAEVGVIGYLEDQIMSLHAEIMELQKSPYGRRQGDLMESLEQRAIDLYKQLKHRPSDHSYSDSTEMVKIIVHTVQSQDRVLKELFGHLSKLLGCKQKIIDLLPKVEVALSNIKEADNTVMFMQGKRQKEIWHLLKIACTQSSARSLVGSSLEGAVTPQTSAWLPPTSAEHDHSLSCVVTPQDGETSAQMIEENLNCLGHLSTIIHEANEEQGNSMMNLDWSWLTE
B5: PKCι (protein)
chain: MPTQRDSSTMSHTVAGGGSGDHSHQVRVKAYYRGDIMITHFEPSISFEGLCNEVRDMCSFDNEQLFTMKWIDEEGDPCTVSSQLELEEAFRLYELNKDSELLIHVFPCVPERPGMPCPGEDKSIYRRGARRWRKLYCANGHTFQAKRFNRRAHCAICTDRIWGLGRQGYKCINCKLLVHKKCHKLVTIECGRHSLPQEPVMPMDQSSMHSDHAQTVIPYNPSSHESLDQVGEEKEAMNTRESGKASSSLGLQDFDLLRVIGRGSYAKVLLVRLKKTDRIYAMKVVKKELVNDDEDIDWVQTEKHVFEQASNHPFLVGLHSCFQTESRLFFVIEYVNGGDLMFHMQRQRKLPEEHARFYSAEISLALNYLHERGIIYRDLKLDNVLLDSEGHIKLTDYGMCKEGLRPGDTTSTFCGTPNYIAPEILRGEDYGFSVDWWALGVLMFEMMAGRSPFDIVGSSDNPDQNTEDYLFQVILEKQIRIPRSLSVKAASVLKSFLNKDPKERLGCHPQTGFADIQGHPFFRNVDWDMMEQKQVVPPFKPNISGEFGLDNFDSQFTNEPVQLTPDDDDIVRKIDQSEFEGFEYINPLLMSAEECV
B6: RIPK5 (protein)
chain: FAASLRQLEAGHSGRLEKTEDLWLRVRKDHAPRLARLSLESCSLQDVLLHRKPKLGQELGRGQYGVVYLCDNWGGHFPCALKSVVPPDEKHWNDLALEFHYMRSLPKHERLVDLHGSVIDYNYGGGSSIAVLLIMERLHRDLYTGLKAGLTLETRLQIALDVVEGIRFLHSQGLVHRDIKLKNVLLDKQNRAKITDLGFCKPEAMMSGSIVGTPIHMAPELFTGKYDNSVDVYAFGILFWYICSGSVKLPEAFERCASKDHLWNNVRRGARPERLPVFDEECWQLMEACWDGDPLKRPLLGIVQPMLQGIMNRLCKSNSEQPNRGLDDST
B7: MEKK1 (protein)
chain: NQKCKEKMEAEEEEALAIAMAMSASQDALPIVPQLQVENGEDIIIIQQDTPETLPGHTKAKQPYREDTEWLKGQQIGLGAFSSCYQAQDVGTGTLMAVKQVTYVRNTSSEQEEVVEALREEIRMMSHLNHPNIIRMLGATCEKSNYNLFIEWMAGGSVAHLLSKYGAFKESVVINYTEQLLRGLSYLHENQIIHRDVKGANLLIDSTGQRLRIADFGAAARLASKGTGAGEFQGQLLGTIAFMAPEVLRGQQYGRSCDVWSVGCAIIEMACAKPPWNAEKHSNHLALIFKIASATTAPSIPSHLSPGLRDVALRCLELQPQDRPPSRELLKHPVFRTTW

The proteins below were run against S366 peptide (STING peptide substrate with serine 366).

First: B1
Second: B2
The Activity (cpm) of the first is higher: 162000 cpm for the first, 26300 cpm for the second.

Compared with B3, B4 is lower in Activity (cpm): 50400 cpm for the first, 6890 cpm for the second.

First: B5
Second: B6
The Activity (cpm) of the first is lower: 12800 cpm for the first, 16000 cpm for the second.

Work on B7 yielded an Activity (cpm) of 24900 cpm.

Compared with B1, B2 is lower in Fold induction: 18.6 fold for the first, 3.77 fold for the second.

Compared with B3, B4 is lower in Fold induction: 6.77 fold for the first, 2.83 fold for the second.

Going from B5 to B6, the Fold induction rises from 1.88 fold to 12 fold.

Protein B7 has a Fold induction of 2.2 fold.

The proteins below were run against A366 peptide (STING peptide substrate with alanine at 366).

Compared with B1, B2 is lower in Activity (cpm): 8700 cpm for the first, 6980 cpm for the second.

First: B3
Second: B4
The Activity (cpm) of the first is higher: 7440 cpm for the first, 2430 cpm for the second.

Compared with B5, B6 is lower in Activity (cpm): 6810 cpm for the first, 1330 cpm for the second.

Protein B7 has an Activity (cpm) of 11300 cpm.
